The values that follow come from patent US20220281959A1 (DIACCURATE, published 2022).

Ends that are not written are not given here.

The target in assay [1] is T1, HIV-1 MN gp41 recombinant protein produced in E. coli (565-771Delta642-725) (HIV-1 MN).
T1 construct: range 565-771; Residues 642-725 are deleted; also called MN gp41 (produced in E. coli); MN gp41 protein
The experiment in a line: ELISA, hybridoma supernatant 1/10, coated MN gp41.

The target in assay [2] is T2, BSA-PEP3 peptide (HIV-1 MN strain, also: conjugated to BSA).
T2 construct: The KLH immunogen carried an added N-terminal Cys
T2 peptide: PWNASWSNKSLDDIW
The experiment in a line: ELISA, hybridoma supernatant 1/10, coated BSA-PEP3.

Assay [3] addresses T2, BSA-PEP3 peptide. The experiment in a line: ELISA, hybridoma supernatant pure, coated BSA-PEP3. On the technique in general: ELISA stands for enzyme-linked immunosorbent assay.
Assay [4] concerns the target T1, HIV-1 MN gp41 recombinant protein …. Description: ELISA, hybridoma supernatant pure, coated MN gp41.
Assay [5] deals with T3, HXB2 gp41 recombinant protein (a.a. 534-681) (HIV-1 HXB2, UniProt P04578 534-681).
T3 construct: Bought; tags not described; also called ABIN1605865
The experiment in a line: sandwich ELISA, mAb capture, gp41 titrated, biotinylated goat pAb detection.

Assay [6] deals with T3, HXB2 gp41 recombinant protein (a.a. …). The experiment in a line: sandwich ELISA, 72D7 capture 10 µg/ml, HXB2 gp41 titrated, biotinylated 4G1 detection 20 µg/ml.

B1: anti-PEP3 mAb 9B12 (antibody, V domains shown)
VH: QVQLQQSGPELVKPGASVKISCKASGYGFSDSWMNWVKQRPGKGLDWIGRIYPGDGDTDYNGKFKDKATLTADKSSTTAYMQLSSLTSEDSAVYFCAYLGHWGQGTLVTVSA
VL: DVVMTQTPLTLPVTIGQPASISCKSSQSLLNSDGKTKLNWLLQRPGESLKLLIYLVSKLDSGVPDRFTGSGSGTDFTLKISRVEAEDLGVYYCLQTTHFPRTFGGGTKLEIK
Consider B1, for which the ELISA screening signal in assay [1] is 0.047; with BSA-PEP3 peptide [2], 2.78; with BSA-PEP3 peptide [3], 2.79; in assay [4], 0.054.

B2: anti-PEP3 mAb 3A2 (antibody, V domains shown)
VH: QVQLQQPGAELVKPGASVKLSCKASGYIFTNYWMHWVRQRPGQGPEWIGMIHPNRGDLHYSEKFNNKATLTVDKSSSTAYMQLNSLASEDSAVYFCARAGLGVFDYWGQGSTLTVSS
VL: DVVMTQTPLSLPVSLGDQVSMSCRSSQSIEHSNRNTYLEWYLHKPGQAPQLLIYGVSNRFTGVPDRFSGSGSGTDFTLKISRVEAEDMGVYHCLQGTHVPFTFGSGTKLEIK
As to B2, the ELISA screening signal in assay [1] is 2.75; with BSA-PEP3 peptide [2] it was 3.06; in the assay with BSA-PEP3 peptide [3], 2.93; in assay [4], 2.63. Also, in assay [5], the “minimal amount of gp41 detected” value is about 1 ng/mL.

B3: anti-PEP3 gp41 mAb 4G1 (antibody, V domains shown)
VL: DVVMTQTPLSLCVSLGDQASISCRTSQSIVHSNRYTYLEWYLQKPGQPLKLLIYGIANRFSGVPDRFSGSGSGTDFTLKISRVEAEDMGVYYCLQGTHVPFTFGSGTKLEIK
V domain: QVQLQQPGAELVKPGASVKLSCKASGYIFRNYWMHWVKQRPGQGLEWIGMIHPNSDITHYNEKFKNRATLTVDKSSSTAYMQLNSLTSEDSAVYYCARGGLGVFDYWGQGTALRVSS
notes: Also used biotinylated (4G1-biot) as detection antibody; also called 4G1 anti-PEP3 mAb; 4G1 mAb
As for B3, in assay [6], the EC50 (in general, the concentration giving half of the maximal effect) came to 0.34 µg/mL. Also, the “minimal amount of gp41 detected” value in assay [5] is about 1 ng/mL.

B4: anti-PEP3 mAb 8D5 (antibody, V domains shown)
VH: QVQLQQPGAELIEPGTSVKLSCKASGYTFTTYWMHWVKQRPGQGLEWIGMIHPNSGDTFYNENFKNKATLTVDISSSTVYMELSSLTSEDSAVYSCVKAGTGALDYWGQGTTLTVSS
VL: DVVMTQTPLSLPVSLGDQASISCRSSQSIVHSNRYTYLEWYLQRPGQSLKLLIYGVSNRFSGVPDRFSGSGSGTDFILKISRVEAEDMGVYYCFQGTHVPFTFGSGTKLEIK
Consider B4, for which the ELISA screening signal in assay [1] amounted to 2.55; with BSA-PEP3 peptide [2], 2.69; with BSA-PEP3 peptide [3], 2.51; in assay [4], 2.58. The “minimal amount of gp41 detected” value in assay [5] was about 1 ng/mL.

B5: anti-PEP3 mAb 5E12 (antibody, V domains shown)
VH: QIQLVQSGPELKKPGETVKISCKASGYTFRTYGMSWVKQAPGKGLKWMGWINTYSGVPRYVDDFKGRFALSLETSASTAYLQINNLKSEDTATYFCVREGYSYYGSSFHTMDYWGQGTSVTVSS
VL: DIQMTQTPLTLSVTIGHPASISCKSSQSLLHTNGKIYLNWLLQRPGQSPKRLIYLVSKLDSGVPDRFSGSGSGTDFTLKISRVEAEDLGVYYCLQSTHFPQTFGGGTKLEIK
In the case of B5, the ELISA screening signal came to 2.71 in assay [1], 3.21 with BSA-PEP3 peptide [2], 3 in the assay with BSA-PEP3 peptide [3] and 2.61 in assay [4].

B6: anti-PEP3 mAb 15B4 (antibody, V domains shown)
VH: QVQLQQSGPELVRPGTSVKISCKAPGYSFTSHWMQWLRQRPGQGLEWIGEIFPGSGKTYYNEKFKDKATLTADTSSTTVYMQFSSLTSEDSAVYFCASDYDGGDYWGQGTTLTVSS
VL: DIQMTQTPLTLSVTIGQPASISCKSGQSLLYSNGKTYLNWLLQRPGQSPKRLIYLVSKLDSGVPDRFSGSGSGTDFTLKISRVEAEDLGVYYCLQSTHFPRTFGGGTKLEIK
Take B6: the ELISA screening signal in assay [1] worked out at 1.45; with BSA-PEP3 peptide [2], 2.59; in the assay with BSA-PEP3 peptide [3] it was 2.73; in assay [4], 1.81. Further, the “minimal amount of gp41 detected” value in assay [5] is over 10 ng/mL.
